# Results reported in the RNAGym collection of RNA variant scans (doi:10.7554/elife.90254).
# B1: OR4K15 (parent)
# chain: GUUAACGGUCAUAGGCCAUGGAAACUAGGAGCACCAUUUCGCUGCCAGUGAAGAAAUGAACAAAGAAAAUCUGGGCCAGGCAGGCAUCAAAAGAAAUAGUCUUGCGCUCAACCAGAAAGUCUGUAAUCAUUUUAAGGGUA
# Variants of: B1
# Assay: self-cleavage, relative activity (ratio to wild type); higher = more cleavage; in vitro, sequencing; the parent is a self-cleaving ribozyme
row,Variant,self-cleavage
1,C101U U131C,0.27
2,U103G G119A,0.01
3,U108C C113A,0.01
4,A110G A125G,0.07
5,A98U U131C,2.12
6,U102C U133G,2.02
7,U102C U133C,2.27
8,U97C A98C,0.75
9,C109A U127C,0.17
10,U97C A125G,0.31
11,C105U A114G,0.07
12,U102C G123A,2.17
13,U102C G123C,1.33
14,G106A U130C,0.01
15,C101U,0.41
16,C101A,0.21
17,C107U A118G,0
18,C107U A118U,0.01
19,U102C U132C,2.04
20,U103A A118C,0.53
21,C109A A117G,0.59
22,C107A U122C,0.01
23,A98G U139G,0.86
24,A98G U139C,0.5

row,Variant,self-cleavage
1,U100A U124C,0.18
2,U100C U102C,1.62
3,U102A U124C,0.88
4,U97C A117G,2.06
5,C107U A135G,0.01
6,A110C A134G,0.41
7,G99A U132A,0.23
8,A110C U122A,0.24
9,A110G G123A,0.29
10,C101U A118G,0.02
11,G104A A116U,0
12,A98G U108C,0
13,U102C U131C,2.13
14,G99A U102A,0.1
15,U103C U127A,1.27
16,U103C U127C,0.26
17,A98G U133A,0.24
18,A98G U133C,0.65
19,A98U A111G,0.01
20,G106U A114G,0
21,U108A U130G,0
22,C105U A116G,0.03
23,U103A A140U,0.46
24,U108C U131A,0.02

row,Variant,self-cleavage
1,U108A U131C,0.01
2,G104U A114U,0.02
3,A110G A134G,0.12
4,U102A U131C,0.62
5,U103A A134U,0.87
6,U103A A134G,0.27
7,U97A A98U,2.29
8,U103C U120G,0.4
9,U103C U120C,0.4
10,U102C C107U,0.01
11,U108A A125G,0
12,U100C A134U,2.45
13,G99A U130C,0.13
14,C101A U122C,0.13
15,G106U U122C,0
16,U100C G137A,2.22
17,U103A G137A,0.85
18,C105A A134G,0.05
19,U97C U120A,0.31
20,U103C U122C,0.55
21,U103C U133C,1.32
22,A98G G104A,0.01
23,U108C A111G,0.01
24,U108C A111C,0.01

row,Variant,self-cleavage
1,U108C A111U,0
2,U103A A111G,0.01
3,U108G A135G,0.01
4,U108C A126G,0
5,U108C A126U,0.01
6,U97A A140G,1.98
7,G106A U127A,0.01
8,G106A G136U,0.04
9,U103C U124C,0.96
10,U102A A135U,0.49
11,G106U U108A,0.01
12,G104A A111G,0.01
13,U108A A114G,0.02
14,C101U U120A,0.4
15,G106C A118G,0
16,A98G U102A,0.15
17,U103A A116G,0.14
18,A110G,0.13
19,A110C,0.31
20,C107U U108C,0.02
21,U97C A126U,0.44
22,G104A U132C,0.04
23,U102A U127C,0.74
24,U97C A114G,0.13

row,Variant,self-cleavage
1,A98G U124A,0.07
2,U108C A117C,0.06
3,U108C A117G,0.01
4,U100C G115U,0.71
5,A98G A114U,0.02
6,A98G A116G,0.12
7,A98U A118G,1.83
8,G99A U131C,0.42
9,U100C G123A,2.36
10,U100C G123U,2.81
11,U103C A114G,0.51
12,U103G U131C,0.01
13,U100A U131C,0.36
14,G104A U122C,0.02
15,U108C G115A,0
16,U100A C113U,0.11
17,U97C G115U,0.03
18,U100C U139A,2.28
19,U100C U139C,2.29
20,U102C U103A,0.2
21,C105A U131C,0.05
22,U103A A135G,0.73
23,U102A A140U,1.14
24,U102A A140G,1.02

row,Variant,self-cleavage
1,A96U U97C,1.9
2,U103A U108A,0.02
3,U102C A129G,1.74
4,U103C A118U,0.3
5,U103A U133C,0.61
6,U103A U124C,0.07
7,U108A A126G,0.01
8,G99A U120C,0.26
9,U103A A114G,0.45
10,U108C U130G,0
11,U108C U130C,0.01
12,U102C A110G,0.15
13,U102C A110C,0.4
14,C105A U124A,0.02
15,U108A A129G,0
16,U102C U108A,0.01
17,U102C U108C,0.01
18,U103A U131G,0.22
19,U108C A140G,0.01
20,A96U U102A,1.08
21,A96U U102C,2.54
22,U102A A111G,0.03
23,U97C U122C,1.21
24,U102A A116C,0.21

row,Variant,self-cleavage
1,U97C A110U,1.02
2,C105A U122A,0
3,U97A A114G,0.64
4,C105U U132C,0.16
5,C107U A111G,0
6,U108C A118C,0
7,U100C A114U,0.16
8,U100C A114G,1.34
9,U97A A125G,0.86
10,U102A G119A,1.23
11,U103C A125U,1.45
12,U102A U103A,0.12
13,U102A A114G,0.43
14,G99A A111G,0.02
15,A98G A140G,0.69
16,G106A A125U,0.05
17,U102C A114G,0.68
18,U102C A114U,0.11
19,A98C A117G,2.47
20,U100C A126G,1.86
21,U97A U139A,1.2
22,C109A U122C,0.28
23,A96U U127C,1.7
24,C105U A111G,0.02

row,Variant,self-cleavage
1,U100C U122A,2.11
2,U100C U122C,1.66
3,U100C U122G,2.48
4,G106A,0.01
5,G106C,0.01
6,G106U,0.01
7,A110G A111U,0.04
8,A98G G99U,1.42
9,A98U U122C,2
10,U100C A118G,1.11
11,U100C A118U,0.77
12,G106U U132A,0.03
13,C107A A111G,0.02
14,U108G U139C,0
15,C109U C128A,0.12
16,U103C U108A,0.02
17,U100C A116C,0.97
18,U100C A116G,1.32
19,U108C A116U,0
20,U108C A116G,0.01
21,C107A A114U,0
22,U97A A117G,2.09
23,U108A U127A,0.03
24,U102A U130C,0.43

row,Variant,self-cleavage
1,U102A U130A,0.32
2,U100C U120C,2.65
3,U102G A126G,0.69
4,C109U U133C,0.37
5,U108C U127C,0.01
6,U108C U127A,0.01
7,U108A A135U,0.02
8,U108C A134G,0.07
9,U97A A111G,0.03
10,U103C U139A,1.06
11,U103C U139C,1.15
12,A98U G115A,0.1
13,U97G,1.77
14,U97A,1.75
15,U97C,0.71
16,U97C A111G,0.02
17,U97C A111U,0.07
18,U97G U127C,0.49
19,U97C G123A,1.14
20,A98G A125G,0.13
21,U100G A126G,1.02
22,G104U A140G,0
23,U102A A129U,0.31
24,U103G G104A,0.59

row,Variant,self-cleavage
1,U108C A110U,0.01
2,G99U A129G,0.13
3,A98G A118G,0.26
4,U100C U132C,2.14
5,C107A A118U,0
6,C109A A114G,0.11
7,C109U A135G,0.38
8,G106A A111U,0
9,G106A A111G,0.01
10,C109A A118G,0.32
11,U108C C128G,0.01
12,U108A A116U,0.02
13,A110G A135U,0.12
14,U108C A125G,0
15,U97A U131C,1.62
16,A110G C121G,0.2
17,U102C A126G,1.89
18,U102C A126U,1.39
19,C107G U108A,0.01
20,U102C A116U,0.23
21,U102C A116G,0.7
22,U103A,0.39
23,U103G,0.03
24,U103C,0.7

row,Variant,self-cleavage
1,C105G A135G,0.03
2,U102C U120C,2.34
3,A98U U124C,2.17
4,A98G A117G,0.81
5,G99A A117G,0.36
6,U103G U127C,0
7,U97A U133C,2.13
8,C107U A134G,0.03
9,U102A G115A,0.06
10,A96U G138U,1.75
11,U100C A110G,0.32
12,U100C A110C,1.12
13,U102A U108A,0.02
14,U100A U139C,0.83
15,U103C A140U,1.14
16,C107G A118G,0.01
17,U103C A135U,1.34
18,U108C A135U,0.01
19,U102C A135G,1.6
20,U103C G104A,0.02
21,A98G A111G,0.01
22,U100C A111G,0.01
23,C105G A117G,0.02
24,A98G A129G,0.17

row,Variant,self-cleavage
1,A98G A129U,0.3
2,U102C U130A,1.61
3,U108A A111G,0.01
4,U103C A117G,0.71
5,U103C A117C,0.29
6,U102C A134G,1.14
7,A96U U132G,1.55
8,C101U U127A,0.45
9,U100C U131C,2.14
10,U108A A118G,0
11,A98G U103C,0.05
12,U103C U130C,0.57
13,U102G U130A,0.29
14,U103C U132C,0.85
15,U103G U122C,0.01
16,U97C U130A,0.78
17,G104A A126U,0.09
18,G104A A126G,0.02
19,U102A U122A,1.28
20,A110G A117G,0.16
21,A110G A140U,0.18
22,U103A U122C,0.35
23,U108C U120C,0.01
24,U108C U120A,0.01

row,Variant,self-cleavage
1,U100A A134G,0.37
2,U100C C107G,0.01
3,U97C A134U,1.69
4,U103C A129U,0.29
5,C101U G106A,0
6,U108A A117G,0.02
7,U100C U130C,2.02
8,C105U A118G,0.04
9,U100A A129G,0.23
10,U108C U139C,0.01
11,U103A A126G,0.34
12,G99A C113U,0.05
13,U100G U108A,0.02
14,U108C A114G,0.01
15,U108C A114U,0.01
16,U100C,2.09
17,U100G,1.24
18,U100A,0.61
19,U102C,1.82
20,U102G,0.58
21,U102A,0.74
22,A98G A126G,0.34
23,A98G U122C,0.34
24,A98G U122A,0.57

row,Variant,self-cleavage
1,A98G A135G,0.83
2,U100C U108C,0.01
3,U100C A129U,1.49
4,U97C U102C,2.38
5,U97C U102A,0.47
6,U100C A140G,2.28
7,U100C A140U,2.24
8,C105A,0.03
9,C105U,0.16
10,C105G,0.02
11,C107U U130C,0
12,U97C U103C,0.58
13,U100C U127C,1.61
14,U108A G123A,0.01
15,U103C A111G,0.02
16,A96U U130C,1.13
17,G106U A118G,0.02
18,U102C A111G,0.01
19,U100C C105U,0.33
20,A98G U127C,0.39
21,U100C C109U,0.89
22,U108A U124C,0.01
